Patent publication KR20210154940A (dated 2021)

T1: hCEACAM1 (R&D Systems, CAT. NO. 2244-CM) (human, UniProt P13688 35-428)
T1 construct: not shown: a His tag is implied by the use of Anti-His (His1K) biosensors
T1 sequence: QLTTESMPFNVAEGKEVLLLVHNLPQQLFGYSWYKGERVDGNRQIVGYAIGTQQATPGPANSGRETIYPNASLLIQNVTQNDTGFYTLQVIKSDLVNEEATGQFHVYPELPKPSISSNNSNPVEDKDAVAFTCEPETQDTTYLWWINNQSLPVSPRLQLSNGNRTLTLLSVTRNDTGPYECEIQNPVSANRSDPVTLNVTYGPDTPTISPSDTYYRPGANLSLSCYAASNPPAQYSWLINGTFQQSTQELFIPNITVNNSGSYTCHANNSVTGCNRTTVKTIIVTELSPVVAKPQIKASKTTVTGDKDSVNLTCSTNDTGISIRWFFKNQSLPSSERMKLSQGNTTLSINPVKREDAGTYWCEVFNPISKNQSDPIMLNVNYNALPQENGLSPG

B1: 항-CEACAM1 항체의 Fab (Fab of the anti-CEACAM1 antibody, papain fragment of the IgG1-type antibody) (Fab, V domains shown)
VH: EVQLLESGGGLVQPGGSLRLSCAASGFTFSNYAMSWVRQAPGKGLEWVSVISHGGGSIYYADSVKGRLTISRDNSKNTLYLQMNSLRAEDTAVYYCARDPTKGYAPTFDYWGQGTLVTVSS
VL: QSVLTQPPSASGTPGQRVTISCSGSSSNIGNNYVSWYQQLPGTAPKLLIYADSRRPSGVPDRFSGSKSGTSASLAISGLRSEDEADYYCGAWDLSLNGYVFGGGTKLTVLG
B2: 항-CEACAM1 항체 (anti-CEACAM1 antibody, IgG4 type) (antibody, V domains shown)
VH: B1 VH
VL: B1 VL
notes: also called 일 실시예의 항-CEACAM1 항체

Columns and labels:
[1] = molecular target: CEACAM1 N-도메인 (CEACAM1 N-domain, residues 35-141) (human) (UniProt P13688); assay: X-ray crystal structure of the Fab and N-domain complex
[2] = molecular target: T1, hCEACAM1 (R&D Systems, CAT. NO. 2244-CM); assay: not named in this sentence (BLI in Example 4); differs from the table cell
[3] = molecular target: T1, hCEACAM1 (R&D Systems, CAT. NO. 2244-CM); assay: BLI (Octet QKe); sentence that introduces Table 5, differs from the table cell
[4] = molecular target: T1, hCEACAM1 (R&D Systems, CAT. NO. 2244-CM); assay: BLI (Octet QKe); Anti-His (His1K) biosensors, hCEACAM1 (R&D 2244-CM), antibody at 6.25-400 nM

Row | Binder | 항원-항체 결합의 전체 표면적 [1] | Kd [2] | Kd [3] | Kd [4] | koff [4] | kon [4]
1 | B1 | 792 Å2 | – | – | – | – | –
2 | B2 | – | 3.36 nM | 3.9 nM | 3.39 nM | 0.000567 s⁻¹ | 163000 M⁻¹ s⁻¹
